FireProtDB (doi:10.1111/febs.14143)
Several values for one entry are separate records, joined by “and”; a condition that tells them apart may be missing. Equal entries are not always repeated.

B1: Guanine nucleotide-binding protein G(i) subunit alpha-3, P08753 (parent)
chain: MGCTLSAEDKAAVERSKMIDRNLREDGEKAAKEVKLLLLGAGESGKSTIVKQMKIIHEDGYSEDECKQYKVVVYSNTIQSIIAIIRAMGRLKIDFGEAARADDARQLFVLAGSAEEGVMTSELAGVIKRLWRDGGVQACFSRSREYQLNDSASYYLNDLDRISQTNYIPTQQDVLRTRVKTTGIVETHFTFKELYFKMFDVGGQRSERKKWIHCFEGVTAIIFCVALSDYDLVLAEDEEMNRMHESMKLFDSICNNKWFTDTSIILFLNKKDLFEEKIKRSPLTICYPEYTGSNTYEEAAAYIQCQFEDLNRRKDTKEVYTHFTCATDTKNVQFVFDAVTDVIIKNNLKECGLY

Variants of: B1
Conditions: Rattus norvegicus; pH 7.5; Thermal; Fluorescence; HEPES; NaCl MgCl2 50000 2000; transition: 2; reversible: yes; structure 6MHE; whole UniProt chain shown

Row | Variant | Tm
1 | A326S | 64 °C and 62.5 °C
2 | G203A | 57.5 °C

Same assay, conditions: Rattus norvegicus; pH 7.5; Thermal; DSC; HEPES; NaCl MgCl2 50000 2000; transition: 2; reversible: yes; structure 6MHE; whole UniProt chain shown

Row | Variant | Tm
3 | T329A | 65 °C
